According to FireProtDB (doi:10.1021/bi052091o):
Values joined by “and” are separate entries in the source; they are usually repeats but may differ in a detail not shown here. Equal values may be shown once.

B1: Fatty acid-binding protein, intestinal, P02693 (parent)
chain: MAFDGTWKVDRNENYEKFMEKMGINVVKRKLGAHDNLKLTITQEGNKFTVKESSNFRNIDVVFELGVDFAYSLADGTELTGTWTMEGNKLVGKFKRVDNGKELIAVREISGNELIQTYTYEGVEAKRIFKKE

Variants of: B1
Conditions: Rattus norvegicus; pH 7; 25 °C; Urea; Fluorescence; NaPO4 25 mM; NaCl 75 mM; structure 1IFB; whole UniProt chain shown

| Variant | ddG of mutation (higher = less stable) [kcal/mol] | denaturant m value | denaturant midpoint (higher = more stable) | unfolding free energy |
| --- | --- | --- | --- | --- |
| MAFDGTWKVDRNENYEKFMEKMGINVVKRKLGAHDNLKLTITQEGNKFTVKESSNFRNIDVVFELGVDAAYSLADGTELTGTWTMEGNKLVGKFKRVDNGKELIAVREISGNELIQTYTYEGVEAKRIFKKE [F69A] | -1.38 | 1.76 kcal/mol/M | 3.52 M | 6.17 kcal/mol |
| MAFDGTWKVDRNENYEKFMEKMGINVVKRKLGAHDNLKLTITQEGNKFTVKESSNFRNIDVVFELGVDFAYSLADGTELTGTYTMEGNKLVGKFKRVDNGKELIAVREISGNELIQTYTYEGVEAKRIFKKE [W83Y] | -0.09 | 1.38 kcal/mol/M and 1.1 kcal/mol/M | 3.54 M and 3.6 M | 4.88 kcal/mol and 3.99 kcal/mol |
| MAFDGTYKVDRNENYEKFMEKMGINVVKRKLGAHDNLKLTITQEGNKFTVKESSNFRNIDVVFELGVDFAYSLADGTELTGTWTMEGNKLVGKFKRVDNGKELIAVREISGNELIQTYTYEGVEAKRIFKKE [W7Y] | 0.93 | 1.09 kcal/mol/M and 0.77 kcal/mol/M | 3.52 M and 3.8 M | 3.86 kcal/mol and 2.93 kcal/mol |
| MAFDGTWKVDRNENYEKFMEKMGINVVKRKLGAHDNLKLTITQEGNKFTVKESSNFRNIDVVFELGVDFAYSLADGTELTGTWTMEGNKLVGKAKRVDNGKELIAVREISGNELIQTYTYEGVEAKRIFKKE [F94A] | 2.42 | 1.3 kcal/mol/M and 0.77 kcal/mol/M | 1.83 M and 2.53 M | 2.37 kcal/mol and 1.94 kcal/mol |
